Measurements from patent publication US20260258117A1 (ACADEMISCH ZIEKENHUIS LEIDEN H O D N LUMC, published 2026).

What was measured:
[1] = molecular target: T1, Complement Factor H protein (human, UniProt P08603 19-1231); experiment: plate-bound complement activation assay: BSA-DNP coat, bsAb with normal human serum, FH detected
T1 construct: Plasma protein, bought purified or present in normal human serum; also called FH; CFH
Protocol: BsAbs were functionally tested in plate-bound complement activation assays. To focus on the classical pathway, MaxiSorp plates were coated with 50 μL/well of a mixture of IgG (10 μg/mL, IVIg, Sanquin) or IgM (1 μg/mL, Merck, 401799) and BSA-DNP (10 μg/mL) or biotinylated BSA-DNP (10 μg/mL, biotinylated in-house) in coating buffer for 1 hour at 37° C. After every incubation, plates were washed three times with PBS/0.05% Tween 20. Plates were blocked with 100 μL/well PBS/1% BSA for 1 hour at 37° C. Samples containing 5 μg/mL (or a titration from 0.1 to 10 μg/mL) bsAbs, 10 μg/mL FH or C4BP, and 1% normal human serum (NHS) in RPMI were preincubated for 30 minutes at 4° C. After washing, plates were incubated with 50 μL/well samples for 1 hour at 37° C. Next, FH and C4BP were detected as described above for the bispecificity ELISA (using goat anti-human FH and HRP-labeled rabbit anti-goat Ig, or using rabbit anti-human C4BP and HRP-labeled goat anti-rabbit Ig), and C5b-9 was detected using mouse anti-human C5b-9 (Dako, M0777) and HRP-labeled goat anti-mouse Ig (Dako, P0447), all diluted in PTB buffer. Plates were developed by incubating with 50 μL/well ABTS containing 1:2000 diluted H₂O₂, and read at 415 nm using a microplate reader. […]

C4b-binding protein = molecular target: T2, C4b-binding protein (human, UniProt P04003 49-597; P20851 18-252); experiment: plate-bound complement activation assay: BSA-DNP coat, bsAb with normal human serum, C4BP detected
T2 construct: also called C4BP
T2 sequence (looked up) 1: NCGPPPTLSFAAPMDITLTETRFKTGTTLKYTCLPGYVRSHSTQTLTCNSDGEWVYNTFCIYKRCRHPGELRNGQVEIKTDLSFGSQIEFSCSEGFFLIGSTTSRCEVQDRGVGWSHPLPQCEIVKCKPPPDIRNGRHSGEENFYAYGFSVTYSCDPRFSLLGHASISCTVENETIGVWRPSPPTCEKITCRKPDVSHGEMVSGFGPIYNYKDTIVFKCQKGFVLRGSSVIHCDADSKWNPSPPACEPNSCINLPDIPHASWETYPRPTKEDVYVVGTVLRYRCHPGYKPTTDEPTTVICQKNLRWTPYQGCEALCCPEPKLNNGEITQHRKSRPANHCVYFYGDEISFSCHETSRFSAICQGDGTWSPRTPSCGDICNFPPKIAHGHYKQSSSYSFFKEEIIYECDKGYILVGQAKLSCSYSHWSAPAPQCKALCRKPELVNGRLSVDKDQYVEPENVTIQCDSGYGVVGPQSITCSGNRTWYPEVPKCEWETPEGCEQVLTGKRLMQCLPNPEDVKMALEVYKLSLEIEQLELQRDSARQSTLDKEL
T2 sequence (looked up) 2: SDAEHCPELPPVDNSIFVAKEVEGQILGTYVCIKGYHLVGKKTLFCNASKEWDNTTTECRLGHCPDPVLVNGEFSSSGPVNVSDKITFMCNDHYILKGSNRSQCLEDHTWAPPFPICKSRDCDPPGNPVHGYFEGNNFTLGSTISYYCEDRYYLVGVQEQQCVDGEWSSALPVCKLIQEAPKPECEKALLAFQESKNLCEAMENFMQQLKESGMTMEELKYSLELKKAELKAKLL
Protocol: BsAbs were functionally tested in plate-bound complement activation assays. To focus on the classical pathway, MaxiSorp plates were coated with 50 μL/well of a mixture of IgG (10 μg/mL, IVIg, Sanquin) or IgM (1 μg/mL, Merck, 401799) and BSA-DNP (10 μg/mL) or biotinylated BSA-DNP (10 μg/mL, biotinylated in-house) in coating buffer for 1 hour at 37° C. After every incubation, plates were washed three times with PBS/0.05% Tween 20. Plates were blocked with 100 μL/well PBS/1% BSA for 1 hour at 37° C. Samples containing 5 μg/mL (or a titration from 0.1 to 10 μg/mL) bsAbs, 10 μg/mL FH or C4BP, and 1% normal human serum (NHS) in RPMI were preincubated for 30 minutes at 4° C. After washing, plates were incubated with 50 μL/well samples for 1 hour at 37° C. Next, FH and C4BP were detected as described above for the bispecificity ELISA (using goat anti-human FH and HRP-labeled rabbit anti-goat Ig, or using rabbit anti-human C4BP and HRP-labeled goat anti-rabbit Ig), and C5b-9 was detected using mouse anti-human C5b-9 (Dako, M0777) and HRP-labeled goat anti-mouse Ig (Dako, P0447), all diluted in PTB buffer. Plates were developed by incubating with 50 μL/well ABTS containing 1:2000 diluted H₂O₂, and read at 415 nm using a microplate reader.

T1 sequence (P08603 19-1231 limits assumed): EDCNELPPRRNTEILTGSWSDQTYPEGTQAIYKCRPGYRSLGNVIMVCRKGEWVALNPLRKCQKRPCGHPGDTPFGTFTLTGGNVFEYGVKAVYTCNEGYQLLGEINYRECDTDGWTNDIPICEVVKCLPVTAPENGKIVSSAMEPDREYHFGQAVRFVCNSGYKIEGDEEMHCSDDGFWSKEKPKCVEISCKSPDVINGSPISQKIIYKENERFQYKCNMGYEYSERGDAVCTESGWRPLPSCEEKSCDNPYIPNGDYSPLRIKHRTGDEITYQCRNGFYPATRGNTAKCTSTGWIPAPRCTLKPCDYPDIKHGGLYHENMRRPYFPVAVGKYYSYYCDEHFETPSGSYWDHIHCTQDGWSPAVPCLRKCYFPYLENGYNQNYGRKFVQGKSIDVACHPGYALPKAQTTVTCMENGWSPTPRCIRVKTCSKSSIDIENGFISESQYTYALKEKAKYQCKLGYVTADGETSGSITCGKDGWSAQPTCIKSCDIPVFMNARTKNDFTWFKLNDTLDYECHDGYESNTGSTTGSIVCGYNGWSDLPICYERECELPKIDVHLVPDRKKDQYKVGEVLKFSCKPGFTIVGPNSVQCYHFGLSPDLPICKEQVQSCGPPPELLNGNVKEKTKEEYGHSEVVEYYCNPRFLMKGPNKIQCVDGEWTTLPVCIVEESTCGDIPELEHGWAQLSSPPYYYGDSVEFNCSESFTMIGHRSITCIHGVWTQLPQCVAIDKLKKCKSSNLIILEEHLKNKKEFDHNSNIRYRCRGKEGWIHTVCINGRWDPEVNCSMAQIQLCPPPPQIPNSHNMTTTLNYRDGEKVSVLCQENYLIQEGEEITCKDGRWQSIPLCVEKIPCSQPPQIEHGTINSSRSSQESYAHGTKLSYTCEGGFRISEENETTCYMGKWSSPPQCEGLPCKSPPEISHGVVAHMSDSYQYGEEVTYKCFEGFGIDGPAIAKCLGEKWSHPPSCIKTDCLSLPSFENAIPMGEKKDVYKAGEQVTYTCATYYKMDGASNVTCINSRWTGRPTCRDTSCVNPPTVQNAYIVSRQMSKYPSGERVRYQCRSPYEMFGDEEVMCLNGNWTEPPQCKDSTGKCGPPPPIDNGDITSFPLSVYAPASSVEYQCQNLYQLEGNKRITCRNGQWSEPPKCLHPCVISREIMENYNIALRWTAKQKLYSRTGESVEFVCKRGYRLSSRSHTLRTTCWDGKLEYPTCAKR

B1: Anti-HIV F405L LALAPG, Anti-DNP K409R LALAPG (bispecific antibody, human IgG1, kappa, L234A L235A)
heavy 1: QVQLVQSGAEVKKPGASVKVSCQASGYRFSNFVIHWVRQAPGQRFEWMGWINPYNGNKEFSAKFQDRVTFTADTSANTAYMELRSLRSADTAVYYCARVGPYSWDDSPQDNYYMDVWGKGTTVIVSSASTKGPSVFPLAPSSKSTSGGTAALGCLVKDYFPEPVTVSWNSGALTSGVHTFPAVLQSSGLYSLSSVVTVPSSSLGTQTYICNVNHKPSNTKVDKRVEPKSCDKTHTCPPCPAPEAAGGPSVFLFPPKPKDTLMISRTPEVTCVVVDVSHEDPEVKFNWYVDGVEVHNAKTKPREEQYNSTYRVVSVLTVLHQDWLNGKEYKCKVSNKALGAPIEKTISKAKGQPREPQVYTLPPSREEMTKNQVSLTCLVKGFYPSDIAVEWESNGQPENNYKTTPPVLDSDGSFLLYSKLTVDKSRWQQGNVFSCSVMHEALHNHYTQKSLSLSPGK
light 1: EIVLTQSPGTLSLSPGERATFSCRSSHSIRSRRVAWYQHKPGQAPRLVIHGVSNRASGISDRFSGSGSGTDFTLTITRVEPEDFALYYCQVYGASSYTFGQGTKLERKRTVAAPSVFIFPPSDEQLKSGTASVVCLLNNFYPREAKVQWKVDNALQSGNSQESVTEQDSKDSTYSLSSTLTLSKADYEKHKVYACEVTHQGLSSPVTKSFNRGEC
heavy 2: DVRLQESGPGLVKPSQSLSLTCSVTGYSITNSYYWNWIRQFPGNKLEWMVYIGYDGSNNYNPSLKNRISITRDTSKNQFFLKLNSVTTEDTATYYCARATYYGNYRGFAYWGQGTLVTVSAASTKGPSVFPLAPSSKSTSGGTAALGCLVKDYFPEPVTVSWNSGALTSGVHTFPAVLQSSGLYSLSSVVTVPSSSLGTQTYICNVNHKPSNTKVDKRVEPKSCDKTHTCPPCPAPEAAGGPSVFLFPPKPKDTLMISRTPEVTCVVVDVSHEDPEVKFNWYVDGVEVHNAKTKPREEQYNSTYRVVSVLTVLHQDWLNGKEYKCKVSNKALGAPIEKTISKAKGQPREPQVYTLPPSREEMTKNQVSLTCLVKGFYPSDIAVEWESNGQPENNYKTTPPVLDSDGSFFLYSRLTVDKSRWQQGNVFSCSVMHEALHNHYTQKSLSLSPGK
light 2: DIRMTQTTSSLSASLGDRVTISCRASQDISNYLNWYQQKPDGTVKLLIYYTSRLHSGVPSRFSGSGSGTDYSLTISNLEQEDIATYFCQQGNTLPWTFGGGTKLEIKRTVAAPSVFIFPPSDEQLKSGTASVVCLLNNFYPREAKVQWKVDNALQSGNSQESVTEQDSKDSTYSLSSTLTLSKADYEKHKVYACEVTHQGLSSPVTKSFNRGEC
notes: also called anti-HIV x anti-DNP
[1]
  binding result: no binding
C4b-binding protein
  binding result: no binding
